{"source": "patent US20100040637A1", "biological_target": "human prominin-1 (CD133) (human) (UniProt O43490)", "sequence (O43490 20-865)": "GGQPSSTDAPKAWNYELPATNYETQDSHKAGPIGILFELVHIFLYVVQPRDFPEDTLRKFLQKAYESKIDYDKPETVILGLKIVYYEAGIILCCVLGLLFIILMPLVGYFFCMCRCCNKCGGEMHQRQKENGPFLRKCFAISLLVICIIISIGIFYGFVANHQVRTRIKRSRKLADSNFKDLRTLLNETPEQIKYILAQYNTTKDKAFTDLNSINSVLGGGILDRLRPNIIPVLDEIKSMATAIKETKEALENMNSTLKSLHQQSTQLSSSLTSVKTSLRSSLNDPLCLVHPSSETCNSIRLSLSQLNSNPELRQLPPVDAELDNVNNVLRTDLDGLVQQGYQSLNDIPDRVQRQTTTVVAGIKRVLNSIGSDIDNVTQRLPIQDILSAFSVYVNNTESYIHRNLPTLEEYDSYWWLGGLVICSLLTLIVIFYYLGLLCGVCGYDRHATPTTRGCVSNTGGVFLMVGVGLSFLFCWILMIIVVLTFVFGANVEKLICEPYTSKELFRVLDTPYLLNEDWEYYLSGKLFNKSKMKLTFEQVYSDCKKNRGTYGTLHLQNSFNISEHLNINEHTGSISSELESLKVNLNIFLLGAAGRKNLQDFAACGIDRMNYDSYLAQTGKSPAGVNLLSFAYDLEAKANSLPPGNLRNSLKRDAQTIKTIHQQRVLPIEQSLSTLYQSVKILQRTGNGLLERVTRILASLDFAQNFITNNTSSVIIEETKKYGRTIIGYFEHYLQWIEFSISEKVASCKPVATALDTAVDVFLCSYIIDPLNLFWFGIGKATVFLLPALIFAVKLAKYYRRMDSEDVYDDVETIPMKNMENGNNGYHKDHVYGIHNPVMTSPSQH", "test": "cell-based or functional assay", "data": [{"substance": "AC133-mcMMAF (AC133 conjugated to maleimidocaproyl-MMAF) (antibody)", "values": [{"measurement": "IC50, cytotoxicity (resazurin) on HEK293 cells stably expressing CD133", "result": 1, "unit": "ng/mL"}, {"measurement": "IC50, cytotoxicity (rezasurin dye conversion) in Hep3B cells", "result": 6, "unit": "nM"}, {"measurement": "IC50, growth inhibition (3H-thymidine) of Caco-2 cells", "result": 100, "unit": "ng/mL"}]}, {"substance": "AC133-vcMMAE (AC133 conjugated to maleimidocaproyl-valine-citrulline-p-aminobenzoyl-MMAE) (antibody)", "values": [{"measurement": "IC50, cytotoxicity (resazurin) on HEK293 cells stably expressing CD133", "result": 6, "unit": "ng/mL"}, {"measurement": "IC50, growth inhibition (3H-thymidine) of Caco-2 cells", "result": 1000, "unit": "ng/mL"}]}, {"substance": "AC133-vcMMAF (AC133 conjugated to maleimidocaproyl-valine-citrulline-p-aminobenzoyl-MMAF) (antibody)", "values": [{"measurement": "IC50, cytotoxicity (resazurin) on HEK293 cells stably expressing CD133", "result": 1, "unit": "ng/mL"}, {"measurement": "IC50, cytotoxicity (rezasurin dye conversion) in Hep3B cells", "result": 0.35, "unit": "nM"}, {"measurement": "IC50, cytotoxicity assay in Caco-2 cells", "result": 3, "unit": "ng/mL"}, {"measurement": "IC50, growth inhibition (3H-thymidine) of Caco-2 cells", "result": "< 1", "unit": "ng/mL"}]}]}
